The values below are quoted from earlier work in patent publication US10464968B2, “Method for producing a composition for treating a tooth lesion” (CREDENTIS AG, priority 2012, dated 2019).

Where two headings read alike, the source gives them in different places. No end group written: not given here.

For “QQRFEWEFEQQ [Example P11-4, self-assembling peptide of 11 amino acids]”, the “phase state of aqueous solution” value is on record as “isotropic fluid” (above pH 7.5); “nematic gel” (below pH 3); “flocculate” (between about pH 5 and about pH 3); “nematic fluid” (between about pH 7.5 and about pH 5).
